The text below walks through data of publication PMC11084668, “EGCG Disrupts the LIN28B/Let-7 Interaction and Reduces Neuroblastoma Aggressiveness”.

Data set [1] deals with T1, rLIN28B (LIN28B-Myc-His) (Homo sapiens, UniProt Q6ZN17 1-250).
T1 sequence: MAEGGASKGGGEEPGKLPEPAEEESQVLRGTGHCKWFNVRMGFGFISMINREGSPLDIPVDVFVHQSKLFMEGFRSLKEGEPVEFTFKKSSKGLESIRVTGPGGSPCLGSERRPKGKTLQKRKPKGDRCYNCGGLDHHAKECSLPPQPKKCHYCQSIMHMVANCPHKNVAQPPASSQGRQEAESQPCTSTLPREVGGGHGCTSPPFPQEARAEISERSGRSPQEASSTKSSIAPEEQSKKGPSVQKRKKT
Nature of the data set: AlphaScreen; REMSA: 20 mM HEPES pH 7.5, 50 mM KCl, 0.5 ug BSA, 0.25% glycerol, room temperature, 1 h; AlphaScreen: dialysis buffer (Table S3, partly shown: 0.02% Tween, 0.1% BSA, 15% glycerol, pH 7.5?), room temperature, 90 min. Conditions: protein: recombinant; tags: C-terminal Myc-His; label: 5'-biotin. For orientation: Bead proximity is the source of the signal in Alpha formats.

Data set [2] addresses T1, rLIN28B (LIN28B-Myc-His). Nature of the data set: AlphaScreen saturation binding; apparent Kd; n = 3, SD; REMSA: 20 mM HEPES pH 7.5, 50 mM KCl, 0.5 ug BSA, 0.25% glycerol, room temperature, 1 h; AlphaScreen: dialysis buffer (Table S3, partly shown: 0.02% Tween, 0.1% BSA, 15% glycerol, pH 7.5?), room temperature, 90 min. Conditions: protein: recombinant; tags: C-terminal Myc-His; label: 5'-biotin.

GGCAUGAUACCACCCGGUACGGGC (structured_RNA) [Bi-pre-let-7g-mut]: in the data set with rLIN28B (LIN28B-Myc-His) [1], the binding result is on record as “no binding”.

On to GCUAUGAUACCACCCGGUACAGGAGC (structured_RNA) [Bi-pre-let-7g], for which, in the data set with rLIN28B (LIN28B-Myc-His) [2], the Kd came to 34.7 ± 3.6 nM.
